Legend:
C[C@H](O)C(=O)O = assay: purified protein; type: biochemical, Babesia microti; details: NAD+
[1] = tested on: NC(=O)c1ccc[n+]([C@@H]2O[C@H](COP(=O)([O-])OP(=O)(O)OC[C@H]3O[C@@H](n4cnc5c(N)ncnc54)[C@H](O)[C@@H]3O)[C@@H](O)[C@H]2O)c1; assay: purified protein; details: varied: cofactor

Babesia microti lactate dehydrogenase (BmLDH) (Babesia microti strain RI)
Km (C[C@H](O)C(=O)O): 99.96 ± 22.33 mM | Km [1]: 8.76 ± 0.57 mM

— article PMC4125376
